Data as given in US8969060B2, “Modified glucose dehydrogenase” (Ikeda Food Research Co., Ltd., priority 2011, dated 2015).
Where a chain is given by its changes, count along the chain named. Numbers in names are those of the source. Where “and” joins values, the source holds several entries; their conditions need not be identical. Equal entries are not always repeated.

B1: N287D + D343E + K494E: modified GLD: SEQ ID NO: 1 with substitutions N287D, D343E, K494E (protein, listed as Aspergillus terreus)
chain: MLGKLSFLSALSLAVAAPLSNSTSAKYDYIVIGGGTSGLAVANRLSEDPNVNVLILEAGGSVWNNPNVTNVDGYGLAFGSDIDWQYQSVNQPYGGNLSQVLRAGKALGGTSTINGMAYTRAEDVQIDAWETIGNTGWTWKNLFPYYRKSENFTVPTKSQTSLGASYEAGAHGHEGPLDVAFTQIESNNLTTYLNRTFQGMGLPWTEDVNGGKMRGFNLYPSTVNLEEYVREDAARAYYWPYKSRPNLHVLLNTFANRIVWDGEAHDGHITASGVEITSRNGTVRVIDAEKEVIVSAGALKSPAILELSGIGNPSVLDKHNIPVKVNLPTVGENLQDQVNSHMEASGNTSISGTKAVSYPDVYDVFGDEAESVAKQIRANLKQYAADTAKANGNIMKAADLERLFEVQYDLIFKGRVPIAEVLNYPGSATSVFAEFWALLPFARGSVHIGSSNPAEFPVINPNYFMLDWDAKSYVAVAKYIRRSFESYPLSSIVEESTPGYDVIPRNASEQSWKEWVFDKNYRSNFHPVGTAAMMPREIGGVVDERLNVYGTTNVRVVDASVLPFQVCGHLVSTLYAVAERAADLIKADAGRR
modifications: SIGNAL (1)..(19)
B2: D343N: modified GLD: SEQ ID NO: 1 with substitution D343N (protein, listed as Aspergillus terreus)
chain: B1 chain with D287N, E343N, E494K
modifications: SIGNAL (1)..(19)
B3: D343E + L562H: modified GLD: SEQ ID NO: 1 with substitutions D343E, L562H (protein, listed as Aspergillus terreus)
chain: B1 chain with D287N, E494K, L562H
modifications: SIGNAL (1)..(19)
B4: D343N + S490C: modified GLD: SEQ ID NO: 1 with substitutions D343N, S490C (protein, listed as Aspergillus terreus)
chain: B1 chain with D287N, E343N, S490C, E494K
modifications: SIGNAL (1)..(19)
B5: G352E: modified GLD: SEQ ID NO: 1 with substitution G352E (protein, listed as Aspergillus terreus)
chain: B1 chain with D287N, E343D, G352E, E494K
modifications: SIGNAL (1)..(19)
B6: M342L + K354N: modified GLD: SEQ ID NO: 1 with substitutions M342L, K354N (protein, listed as Aspergillus terreus)
chain: B1 chain with D287N, M342L, E343D, K354N, E494K
modifications: SIGNAL (1)..(19)
B7: G426S + A578V: modified GLD: SEQ ID NO: 1 with substitutions G426S, A578V (protein, listed as Aspergillus terreus)
chain: B1 chain with D287N, E343D, G426S, E494K, A578V
modifications: SIGNAL (1)..(19)
B8: V431M: modified GLD: SEQ ID NO: 1 with substitution V431M (protein, listed as Aspergillus terreus)
chain: B1 chain with D287N, E343D, V431M, E494K
modifications: SIGNAL (1)..(19)
B9: S272T + A298V + A369T: modified GLD: SEQ ID NO: 1 with substitutions S272T, A298V, A369T (protein, listed as Aspergillus terreus)
chain: B1 chain with S272T, D287N, A298V, E343D, A369T, E494K
modifications: SIGNAL (1)..(19)
B10: V338 + Q382H: modified GLD: SEQ ID NO: 1 with substitutions at V338 and Q382H (protein, listed as Aspergillus terreus)
chain: B1 chain with D287N, V338M, E343D, Q382H, E494K
modifications: SIGNAL (1)..(19)
B11: L250V + S340G + D399N: modified GLD: SEQ ID NO: 1 with substitutions L250V, S340G, D399N (protein, listed as Aspergillus terreus)
chain: B1 chain with L250V, D287N, S340G, E343D, D399N, E494K
modifications: SIGNAL (1)..(19)
B12: H341L: modified GLD: SEQ ID NO: 1 with substitution H341L (protein, listed as Aspergillus terreus)
chain: B1 chain with D287N, H341L, E343D, E494K
modifications: SIGNAL (1)..(19)
B13: H341R + G499S: modified GLD: SEQ ID NO: 1 with substitutions H341R, G499S (protein, listed as Aspergillus terreus)
chain: B1 chain with D287N, H341R, E343D, E494K, G499S
modifications: SIGNAL (1)..(19)
B14: S340G: modified GLD: SEQ ID NO: 1 with substitution S340G (protein, listed as Aspergillus terreus)
chain: B1 chain with D287N, S340G, E343D, E494K
modifications: SIGNAL (1)..(19)
B15: S340N: modified GLD: SEQ ID NO: 1 with substitution S340N (protein, listed as Aspergillus terreus)
chain: B1 chain with D287N, S340N, E343D, E494K
modifications: SIGNAL (1)..(19)
B16: S340V: modified GLD: SEQ ID NO: 1 with substitution S340V (protein, listed as Aspergillus terreus)
chain: B1 chain with D287N, S340V, E343D, E494K
modifications: SIGNAL (1)..(19)
B17: S340W: modified GLD: SEQ ID NO: 1 with substitution S340W (protein, listed as Aspergillus terreus)
chain: B1 chain with D287N, S340W, E343D, E494K
modifications: SIGNAL (1)..(19)
B18: H341A: modified GLD: SEQ ID NO: 1 with substitution H341A (protein, listed as Aspergillus terreus)
chain: B1 chain with D287N, H341A, E343D, E494K
modifications: SIGNAL (1)..(19)
B19: H341C: modified GLD: SEQ ID NO: 1 with substitution H341C (protein, listed as Aspergillus terreus)
chain: B1 chain with D287N, H341C, E343D, E494K
modifications: SIGNAL (1)..(19)
B20: H341D: modified GLD: SEQ ID NO: 1 with substitution H341D (protein, listed as Aspergillus terreus)
chain: B1 chain with D287N, H341D, E343D, E494K
modifications: SIGNAL (1)..(19)
B21: H341E: modified GLD: SEQ ID NO: 1 with substitution H341E (protein, listed as Aspergillus terreus)
chain: B1 chain with D287N, H341E, E343D, E494K
modifications: SIGNAL (1)..(19)
B22: H341F: modified GLD: SEQ ID NO: 1 with substitution H341F (protein, listed as Aspergillus terreus)
chain: B1 chain with D287N, H341F, E343D, E494K
modifications: SIGNAL (1)..(19)
B23: H341G: modified GLD: SEQ ID NO: 1 with substitution H341G (protein, listed as Aspergillus terreus)
chain: B1 chain with D287N, H341G, E343D, E494K
modifications: SIGNAL (1)..(19)

Assay: Relative enzymatic activity of GLD (DCIP/1-m-PMS, plate reader, yeast culture supernatant) with 1,10-phenanthroline present
Type: biochemical
Details: random-mutation mutants, sample value with inhibitor at 1 mM / blank value, inhibitor not named in Table 1
Description: (§1) The susceptibility defined in the present specification is evaluated in terms of a relative activity that is determined in a system wherein the inhibitor coexists or not. The relative activity is derived from a relative value (%) of an enzymatic activity (a sample value) obtained with the addition of the inhibitor in the determination of the enzymatic activity described in the present specification as compared with an enzymatic activity (a blank value) as “100%” obtained without the addition of the inhibitor in the same determination. Thus, the higher the relative activity is, the less the susceptibility to the inhibitor is (or the more the susceptibility to the inhibitor is reduced), vice versa.
(§2) The enzymatic activity is determined in the following manner in Examples 3 and 6 wherein a plate reader (Japan Molecular Device Corporation, SpectraMax Plus384) is used. Thus, culture supernatant that had been diluted in advance with an appropriate magnification is added to a 96-well microplate with an amount of 100 μl per well. A reagent for the determination of the enzymatic activity comprising phosphate buffer (pH 7.0), 1.0 M D-glucose, 3 mM DCIP, 3 mM 1-m-PMS and methanol with a volume ratio of 0.1:1:0.14:0.2:0.06 is added to the 96-well microplate with an amount of 100 μl per well, and a change in the absorbance of DCIP at 600 nm (ΔABS/min) is then determined. The enzymatic activity can be calculated by conversion in proportion to a change in the absorbance of an enzyme solution for which the enzymatic activity has already been known by the above-mentioned activity determination procedure using the spectrophotometer.
(§3) In the following examples, a value of the enzymatic activity determined by the spectrometer or plate reader using the above reagent composition is considered as a blank value. On the other hand, a sample value is determined using a methanol solution comprising the inhibitor such as 1,10-phenanthroline or proflavin hydrochloride at a final concentration of 1 mM instead of the methanol. Enzymatic activity (unit/mL)=(−ΔABS/16.3)×3.0/0.05×(Dilution ratio of enzyme) [Equation 1]
Into each well of a 96-well microplate (manufactured by Nunc, Inc.), a YPD medium containing 125 μL of 1.0% (w/v) yeast extract (manufactured by BD), 2.0% (w/v) tryptone (manufactured by BD), 2.0% (w/v) glucose (manufactured by Wako Pure Chemical Industries, Ltd.) was dispensed, and the transformant colonies obtained in Example 2 were inoculated thereinto one by one.
After shaking culture at 30° C. and 1,000 rpm for 24 hours, the culture mixture was centrifuged and the supernatant was collected.
According to the above-mentioned method for the determination of enzymatic activity, a blank value and a sample value were determined using a plate reader, and the relative activity (%) was obtained by dividing the sample value by the blank value.

Going from B1 to B2, the “Relative Activity” value rises from 52.2% to 65.2%.

Compared with B3, B5 is higher in “Relative Activity” value: 51.8% for the first, 70.4% for the second.

First: B6
Second: B7
The “Relative Activity” value of the first is higher: 69.8% for the first, 65.7% for the second.

Compared with B8, B9 is higher in “Relative Activity” value: 44.8% for the first, 68.6% for the second.

First: B10
Second: B11
The “Relative Activity” value of the first is higher: 60.0% for the first, 43.4% for the second.

Going from B12 to B13, the “Relative Activity” value rises from 69.7% to 71.9%.

In the case of B4, the “Relative Activity” value is reported as 61.8% and 71.1%.

Same assay, conditions: site-specific mutants, inhibitor final concentration 1 mM

Going from B5 to B12, the “Relative Activity [%] 1,10-Phenanthroline” value rises from 91.7% to 92.2%.

Compared with B14, B15 is higher in “Relative Activity [%] 1,10-Phenanthroline” value: 54.6% for the first, 82.0% for the second.

Going from B16 to B17, the “Relative Activity [%] 1,10-Phenanthroline” value rises from 84.2% to 97.7%.

First: B18
Second: B19
The “Relative Activity [%] 1,10-Phenanthroline” value of the first is lower: 95.1% for the first, 95.4% for the second.

First: B20
Second: B21
The “Relative Activity [%] 1,10-Phenanthroline” value of the first is higher: 90.0% for the first, 88.4% for the second.

Compared with B22, B23 is lower in “Relative Activity [%] 1,10-Phenanthroline” value: 97.1% for the first, 93.8% for the second.

Assay: Relative enzymatic activity of GLD (DCIP/1-m-PMS, plate reader, yeast culture supernatant) with proflavin hydrochloride present
Type: biochemical
Details: site-specific mutants, inhibitor final concentration 1 mM
Description: as §1, §2, §3

Going from B5 to B12, the “Relative Activity [%] Proflavin hydrochloride” value rises from 36.3% to 66.9%.

Compared with B14, B15 is higher in “Relative Activity [%] Proflavin hydrochloride” value: 49.5% for the first, 49.9% for the second.

Going from B16 to B17, the “Relative Activity [%] Proflavin hydrochloride” value rises from 54.9% to 75.7%.

Compared with B18, B19 is lower in “Relative Activity [%] Proflavin hydrochloride” value: 75.8% for the first, 67.7% for the second.

Going from B20 to B21, the “Relative Activity [%] Proflavin hydrochloride” value falls from 64.5% to 25.2%.

Going from B22 to B23, the “Relative Activity [%] Proflavin hydrochloride” value rises from 67.5% to 76.9%.
